Consider two molecules from patent US20210115138A1 (WUXI BIOLOGICS IRELAND, published 2021).

One test addresses T1, cynomolgus PD-1 on cells (cynomolgus, UniProt B0LAJ3 25-288).
T1 construct: also called cell surface cynomolgus PD-1
Put plainly: flow cytometry on cynomolgus PD-1 expressing 293F cells. As to the method: (§1) MFI of the cells was measured by flow cytometry and analyzed by FlowJo.

In the next test the target is T2, human CTLA-4 protein (human, UniProt P16410 36-161).
T2 construct: extracellular domain
T2 sequence (P16410 36-161): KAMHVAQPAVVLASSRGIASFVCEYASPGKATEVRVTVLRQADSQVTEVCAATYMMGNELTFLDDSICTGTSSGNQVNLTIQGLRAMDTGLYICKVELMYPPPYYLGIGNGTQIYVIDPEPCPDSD
Put plainly: ELISA, human CTLA-4 coated at 1 ug/mL, antibody added at 0.67 and 6.7 nM, OD450. As to the method:
(§2) Cross-reactivity to human CD4, CTLA-4 or CD28 was measured by ELISA. Plates were coated with human CD4, CTLA-4 or CD28 at 1 μg/mL overnight at 4° C. […] The plates were then washed and subsequently incubated with corresponding secondary antibody for 60 min. After washing, TMB substrate was added and the color reaction was stopped by 2M HCl.
On the technique in general: In an ELISA, binding on a coated surface is turned into a signal by an enzyme label.

The target of test [1] is T3, His-tagged human PD-1 protein (MW: 40 KD) (human, UniProt Q15116 25-167).
T3 construct: not shown: His tag
T3 sequence (Q15116 25-167 limits assumed): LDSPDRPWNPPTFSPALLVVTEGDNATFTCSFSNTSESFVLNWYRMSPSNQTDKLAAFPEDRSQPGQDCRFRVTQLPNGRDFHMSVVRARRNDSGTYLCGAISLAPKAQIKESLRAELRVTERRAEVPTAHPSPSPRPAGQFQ
The test can be described thus: SPR Biacore 8K; antibody captured on anti-human Fc, His-PD-1 injected. As to the method: Binding affinity of the bispecific antibodies to the antigen were determined by SPR assay using Biacore 8K. PD-1×LAG-3 antibodies were captured on an anti-human IgG Fc antibody immobilized CMS sensor chip (GE).
(§3) The sensorgrams of blank surface and buffer channel were subtracted from the test sensorgrams. The experimental data was fitted by 1:1 model using Langmiur analysis.
(In SPR one partner is held on a chip, and binding of the other changes the refractive index at the surface.)

Test [2] concerns the target T4, human PD-1 on cells (human, UniProt Q15116 25-288).
T4 construct: whole, on cells; also called cell surface human PD-1; PD-1 expressing CHO-S cells
The test can be described thus: flow cytometry; competition with mFc-PD-L1 on PD-1 expressing CHO-S cells. On the procedure:
The mixture was transferred into the 96-well plates seeded with PD-1 expressing CHO-S cells. […] The MFI was evaluated by flow cytometry and analyzed by the software FlowJo.
(Flow cytometry measures light scatter and fluorescence of single cells or particles in a stream.)

Test [3] concerns the target T5, cynomolgus LAG-3 on cells (cynomolgus).
T5 construct: whole, on cells; also called cell surface cynomolgus LAG-3
Put plainly: flow cytometry on cynomolgus LAG-3 expressing 293F cells. On the procedure: as §1

Test [4] deals with T6, mouse Fc-tagged human LAG-3 protein (human, UniProt P18627 23-450).
T6 construct: extracellular domain; also called mouse Fc-tagged LAG-3 protein; not shown: mouse Fc tag
T6 sequence (looked up): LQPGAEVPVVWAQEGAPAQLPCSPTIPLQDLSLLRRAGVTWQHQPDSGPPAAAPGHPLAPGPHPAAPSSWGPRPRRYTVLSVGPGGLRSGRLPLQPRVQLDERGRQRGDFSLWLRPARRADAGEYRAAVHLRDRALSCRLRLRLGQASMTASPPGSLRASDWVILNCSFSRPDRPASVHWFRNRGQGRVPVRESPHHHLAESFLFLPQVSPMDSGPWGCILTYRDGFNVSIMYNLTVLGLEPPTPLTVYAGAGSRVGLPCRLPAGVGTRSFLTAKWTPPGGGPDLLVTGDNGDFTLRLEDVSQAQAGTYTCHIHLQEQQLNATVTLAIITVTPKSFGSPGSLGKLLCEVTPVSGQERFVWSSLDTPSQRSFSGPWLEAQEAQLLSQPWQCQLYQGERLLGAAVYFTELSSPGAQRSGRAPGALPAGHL
Put plainly: flow cytometry; blocking of mFc-LAG-3 binding to MHC-II on Raji cells. On the procedure: The mixture was transferred into the 96-well plates seeded with Raji cells which express MHC-II on the surface. […] The MFI was evaluated by flow cytometry and analyzed by the software FlowJo.

A further test concerns the target human CD4 protein (human, UniProt P01730 26-390, limits assumed). Put plainly: ELISA, human CD4 coated at 1 ug/mL, antibody added at 0.67 and 6.7 nM, OD450. On the procedure: as §2
Test [5] deals with T6, mouse Fc-tagged human LAG-3 protein. Put plainly: ELISA; antibody coated, mFc-tagged LAG-3 titrated. On the procedure:
The plates were then washed and subsequently incubated with HRP-labeled goat anti-mouse IgG antibody for 1 hour. After washing, TMB substrate was added and the color reaction was stopped by 2M HCl. The absorbance at 450 nm was read using a microplate reader.

Test [6] concerns the target T4, human PD-1 on cells. The test can be described thus: flow cytometry on human PD-1 expressing cells. On the procedure:
(§4) MFI of the cells was measured by flow cytometry and analyzed by FlowJo (version 7.6.1).

The target in test [7] is T7, human LAG-3 on cells (human, UniProt P18627 23-525).
T7 construct: whole, on cells; also called cell surface human LAG-3; human LAG-3 expressing 293F cells
T7 sequence (looked up): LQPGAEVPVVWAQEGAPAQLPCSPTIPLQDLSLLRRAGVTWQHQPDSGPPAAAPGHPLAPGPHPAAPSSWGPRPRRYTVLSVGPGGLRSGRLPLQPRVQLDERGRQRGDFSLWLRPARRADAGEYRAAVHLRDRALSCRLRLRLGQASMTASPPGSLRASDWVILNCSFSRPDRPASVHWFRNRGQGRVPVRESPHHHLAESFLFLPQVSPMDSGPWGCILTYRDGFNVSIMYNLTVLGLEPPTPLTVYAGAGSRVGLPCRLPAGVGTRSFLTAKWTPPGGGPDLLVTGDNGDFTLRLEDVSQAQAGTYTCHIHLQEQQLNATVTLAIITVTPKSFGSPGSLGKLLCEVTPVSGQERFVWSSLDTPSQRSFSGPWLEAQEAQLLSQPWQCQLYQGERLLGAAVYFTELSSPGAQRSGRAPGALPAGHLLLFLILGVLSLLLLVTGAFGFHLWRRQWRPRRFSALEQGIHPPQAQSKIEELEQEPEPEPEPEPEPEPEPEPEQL
Put plainly: flow cytometry on human LAG-3 expressing 293F cells. As to the method: as §4

Test [8] concerns the target T8, mouse Fc-tagged human PD-1 protein (human, UniProt Q15116 25-170).
T8 construct: extracellular domain; also called mouse Fc-tagged PD-1 protein; not shown: mouse Fc tag
Put plainly: ELISA; antibody coated, mFc-tagged PD-1 titrated.

The next test addresses T9, human CD28 protein (human, UniProt P10747 19-152).
T9 construct: extracellular domain
The test can be described thus: ELISA, human CD28 coated at 1 ug/mL, antibody added at 0.67 and 6.7 nM, OD450. As to the method: as §2

The target in another test is T10, Human LAG-3 without tag (human, UniProt P18627 23-450).
T10 construct: extracellular domain; also called untagged LAG-3 ECD protein
T10 sequence (looked up): T6 sequence (looked up)
The test can be described thus: SPR; antibody immobilized, untagged human LAG-3 injected, single-cycle kinetics. As to the method: The chip was regenerated with 10 mM glycine (pH 1.5).
as §3

Test [9] concerns the target T7, human LAG-3 on cells. The test can be described thus: cell-based or functional assay.
Test [10] concerns the target T4, human PD-1 on cells. Put plainly: cell-based or functional assay.
The target of test [11] is T8, mouse Fc-tagged human PD-1 protein. The test can be described thus: dual-binding ELISA; mFc-PD-1 coated, antibody titrated, detected by His-tagged LAG-3 and anti-His-HRP; dual binding: PD-1 and LAG-3 protein together.
In the next test the target is T11, mouse PD-1 protein (mouse, UniProt Q02242 25-167, limits assumed).
T11 sequence (looked up): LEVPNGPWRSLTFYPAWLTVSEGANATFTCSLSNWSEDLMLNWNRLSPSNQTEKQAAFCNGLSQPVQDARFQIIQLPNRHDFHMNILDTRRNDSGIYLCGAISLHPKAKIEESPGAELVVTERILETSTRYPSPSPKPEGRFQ
The test can be described thus: ELISA, antibody coated on the plate, mouse PD-1 (His tag on the sheet) added at 0.25, 2.5 and 25 nM, OD450. On the procedure:
After blocking and washing, various concentrations of mouse PD-1 protein were added to the plates and incubated at room temperature for 1 hour. The plates were then washed and subsequently incubated with HRP-labeled goat anti-mouse IgG antibody for 1 hour. After washing, TMB substrate was added and the color reaction was stopped by 2M HCl. The absorbance at 450 nm was read using a microplate reader.

Test [12] addresses T12, human LAG-3 protein (Example 3) (human, UniProt P18627 23-450, limits assumed).
T12 construct: human is stated for the SPR test
T12 sequence (looked up): T6 sequence (looked up)
The test can be described thus: ELISA; blocking of LAG-3 protein binding to Galectin-3; ELISA; blocking LAG-3 binding to Galectin-3.

Test [13] deals with cynomolgus LAG-3 (Example 3) (cynomolgus). Put plainly: method not stated.
Test [14] has as its target T12, human LAG-3 protein (Example 3). Put plainly: FACS; blocking of LAG-3 protein binding to MHC-II on Raji cells; FACS; blocking LAG-3 binding to MHC-II on Raji cells.
Test [15] concerns the target T7, human LAG-3 on cells. Put plainly: FACS affinity test on cell surface human LAG-3.
Test [16] concerns the target T12, human LAG-3 protein (Example 3). The test can be described thus: ELISA; blocking of LAG-3 protein binding to LSECtin; ELISA; blocking LAG-3 binding to LSECtin.
The target of test [17] is T7, human LAG-3 on cells. The test can be described thus: FACS on cell surface human LAG-3.
Test [18] addresses T12, human LAG-3 protein (Example 3). The test can be described thus: SPR; SPR, direct binding.

T4 sequence (Q15116 25-288): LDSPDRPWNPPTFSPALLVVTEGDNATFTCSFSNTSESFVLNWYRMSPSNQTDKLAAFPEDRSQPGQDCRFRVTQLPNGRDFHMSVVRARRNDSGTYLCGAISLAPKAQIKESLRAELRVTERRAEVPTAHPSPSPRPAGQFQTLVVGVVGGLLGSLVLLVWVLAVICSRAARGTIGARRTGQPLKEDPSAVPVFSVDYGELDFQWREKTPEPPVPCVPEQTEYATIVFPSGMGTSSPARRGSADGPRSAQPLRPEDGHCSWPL
T8 sequence (Q15116 25-170): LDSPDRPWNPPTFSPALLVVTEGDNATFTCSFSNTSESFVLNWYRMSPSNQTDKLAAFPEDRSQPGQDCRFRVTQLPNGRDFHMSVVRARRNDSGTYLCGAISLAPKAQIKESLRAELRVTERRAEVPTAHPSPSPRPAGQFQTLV
T1 sequence (B0LAJ3 entry or part of it limits assumed): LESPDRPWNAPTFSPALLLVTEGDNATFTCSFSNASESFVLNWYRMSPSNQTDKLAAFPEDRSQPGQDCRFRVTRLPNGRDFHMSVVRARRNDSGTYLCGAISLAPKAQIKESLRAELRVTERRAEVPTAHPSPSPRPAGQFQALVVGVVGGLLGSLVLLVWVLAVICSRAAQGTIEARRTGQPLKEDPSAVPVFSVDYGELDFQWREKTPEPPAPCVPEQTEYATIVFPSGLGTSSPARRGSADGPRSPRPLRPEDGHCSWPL

B1: W365-U6T1.G14-1.uIgG4.SP (bispecific antibody)
heavy: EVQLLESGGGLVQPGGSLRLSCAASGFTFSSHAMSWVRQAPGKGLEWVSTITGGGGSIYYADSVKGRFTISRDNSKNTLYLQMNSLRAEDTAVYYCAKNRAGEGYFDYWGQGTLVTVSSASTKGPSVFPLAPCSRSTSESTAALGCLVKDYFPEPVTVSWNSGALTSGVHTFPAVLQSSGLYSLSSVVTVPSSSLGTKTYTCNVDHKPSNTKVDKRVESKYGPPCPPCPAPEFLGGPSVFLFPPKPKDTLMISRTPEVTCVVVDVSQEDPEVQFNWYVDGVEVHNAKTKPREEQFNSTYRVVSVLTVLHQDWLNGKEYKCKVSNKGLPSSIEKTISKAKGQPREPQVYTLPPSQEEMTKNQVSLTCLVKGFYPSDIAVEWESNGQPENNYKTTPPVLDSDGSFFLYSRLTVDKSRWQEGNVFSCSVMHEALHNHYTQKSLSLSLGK
light: SYELTQPLSVSVALGQTARITCGGDNIGNKDVHWYQQKPGQAPVLVIYRDSNRPSGIPEGFSGSNSGNTATLTISRAQAGDEADYYCQVWDSIWVFGGGTKLTVLGQPKAAPSVTLFPPSSEELQANKATLVCLISDFYPGAVTVAWKADSSPVKAGVETTTPSKQSNNKYAASSYLSLTPEQWKSHKSYSCQVTHEGSTVEKTVAPTECSGGGGSGGGGSQLQLQESGPGLVKPSETLSLTCTVSGDSISSTSYYWGWIRQPPGKGLEWIGSFYYSGSTYYNPSLKSRVTISVDTSKNQFSLKLNSVTAADTAVYYCARMQLWSYDVDVWGQGTTVTVSSGGGGSGGGGSGGGGSQSALTQPASVSGSPGQSITISCTGTSSDVGGYDYVAWYQQHPGKVPKLMIYDVSERPSGVSNRFSGSKSGNTASLTISGLQAEDEADYYCSSYTSTTTLVVFGGGTKLSVL
notes: Anti-PD-1 (W3055-1.153.7) human IgG4 S228P; also called W365-G14; W365G-14
B1: the 50% effective concentration (EC50) with cynomolgus PD-1 on cells worked out at 380 pM; in test [3], 6500 pM; in test [5], 270 pM; in the test with human PD-1 on cells [6], 1320 pM; with human LAG-3 on cells [7] it was 2570 pM; in test [8], 70 pM. In addition, the concentration for a half-maximal effect (EC50) in test [11] is 40 pM. Moreover, the binding result with human CTLA-4 protein was “no binding (tested: 6.7 nM)”; with human CD4 protein, “no binding (tested: 6.7 nM)”; with human CD28 protein it was “no binding (tested: 6.7 nM)”; in the test with mouse PD-1 protein, “no binding (tested: 25 nM (mouse PD-1))”. For the same molecule, the figures for the Kd (in [1]; with Human LAG-3 without tag) were 2460 pM and less than 26.1 pM, respectively. The figures for the koff (in test [1]; in the test with Human LAG-3 without tag) were 0.000695 s⁻¹ and less than 1e-05 s⁻¹, respectively. Further, the figures for the association rate constant (kon) (in [1]; with Human LAG-3 without tag) were 283000 M⁻¹ s⁻¹ and 383000 M⁻¹ s⁻¹, respectively. In addition, the IC50 with human PD-1 on cells [2] worked out at 1010 pM; in test [4], 2200 pM. Also, the “EC50 of IL-2 pathways enhancement (luciferase reporter)” value in the test with human LAG-3 on cells [9] is 920 pM. In addition, in the test with human PD-1 on cells [10], the “EC50 of NFAT pathways enhancement (luciferase reporter)” value stood at 400 pM.

B2: W3395-3.40.19 (antibody, V domains shown)
VH: QLQLQESGPGLVKPSETLSLTCTVSGDSISSTSYYWGWIRQPPGKGLEWIGSFYYSGSTYYNPSLKSRVTISVDTSKNQFSLKLNSVTAADTAVYYCARMQLWSYDVDVWGQGTTVTVSS
VL: QSALTQPASVSGSPGQSITISCTGTSSDVGGYDYVAWYQQHPGKVPKLMIYDVSERPSGVSNRFSGSKSGNTASLTISGLQAEDEADYYCSSYTSTTTLVVFGGGTKLSVL
notes: Fully human monoclonal anti-LAG-3 antibody; also called human W3395-3.40.19 LAG-3 Ab
For the molecule B2, the EC50 in [12] was found to be 560 pM; in test [13] it was 3920 pM; in test [14] it was 670 pM; in test [16], 510 pM; with human LAG-3 on cells [17], 130 pM. Moreover, the values for the Kd (with human LAG-3 on cells [15]; in [18]) were 53 pM and 10.6 pM, respectively.

The term EC50 denotes the concentration needed to bring the measured effect to its halfway point. A lower EC50 goes with an effect from little substance. The Kd is the equilibrium constant for the complex coming apart. What is called koff is the first-order rate constant of dissociation. A high value points to fast dissociation. One may read the kon as the rate constant with which the complex forms. Low readings indicate slow association, high ones fast association. Usually IC50 stands for the concentration that inhibits the measured activity by half.
